The target of assay [1] is T1, BCL-XL (UniProt Q07817 1-209).
T1 construct: Target of the Ki columns
Nature of the assay: Ki; method not stated; unit not printed (nM per Table 6).
T1 sequence (Q07817 1-209): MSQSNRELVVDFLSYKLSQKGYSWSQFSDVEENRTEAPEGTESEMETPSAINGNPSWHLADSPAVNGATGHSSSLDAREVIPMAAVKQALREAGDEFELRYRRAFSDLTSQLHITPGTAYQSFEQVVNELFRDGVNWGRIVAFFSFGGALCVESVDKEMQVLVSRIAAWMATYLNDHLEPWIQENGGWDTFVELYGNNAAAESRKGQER

Assay [2] deals with BCL-XL (UniProt Q07817 1-209). Nature of the assay: Ki table, method not stated.
Target sequence in this assay (Q07817 1-209): as above
The target of another assay is BCL-2 (UniProt P10415 1-217, limits assumed). Briefly: Ki table, method not stated.
Assay [3] deals with T2, MCL-1 (UniProt Q07820 172-327, limits assumed).
T2 construct: also called Myeloid cell leukemia 1
Nature of the assay: Ki table, method not stated.
T2 sequence (Q07820 172-327 limits assumed): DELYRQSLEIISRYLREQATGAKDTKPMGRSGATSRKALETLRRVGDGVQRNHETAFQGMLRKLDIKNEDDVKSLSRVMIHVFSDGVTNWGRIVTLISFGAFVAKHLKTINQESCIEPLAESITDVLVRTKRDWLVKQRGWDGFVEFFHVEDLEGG

Assay [4] addresses T3, MCL-1 (UniProt Q07820 172-327, limits assumed).
T3 construct: Target of the Ki columns; also called Myeloid cell leukemia 1
Nature of the assay: Ki; method not stated; unit not printed (nM per Table 6).
T3 sequence (Q07820 172-327 limits assumed): as above

Positions of bridges follow the written chain, without caps; N, C: chain ends. Non-standard residues stand in square brackets, D forms with d. Phe(4-F) = N[C@@H](Cc1ccc(F)cc1)C(=O)O; R8 = C=CCCCCCC[C@@](C)(N)C(=O)O; Cit = NC(=O)NCCC[C@H](N)C(=O)O; αMeD = C[C@](N)(CC(=O)O)C(=O)O; αMeL = CC(C)C[C@](C)(N)C(=O)O; hLeu = CC(C)CC[C@H](N)C(=O)O; S5 = C=CCCC[C@](C)(N)C(=O)O; Ac5c = NC1(C(=O)O)CCCC1; Aib = CC(C)(N)C(=O)O

Sequence of BCL-2 (P10415 1-217 limits assumed): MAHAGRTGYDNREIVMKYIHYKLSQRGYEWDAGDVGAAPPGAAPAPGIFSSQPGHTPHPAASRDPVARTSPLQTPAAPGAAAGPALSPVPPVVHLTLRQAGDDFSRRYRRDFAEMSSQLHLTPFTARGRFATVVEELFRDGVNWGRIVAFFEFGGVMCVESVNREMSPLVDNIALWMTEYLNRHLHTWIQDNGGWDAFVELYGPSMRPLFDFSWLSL

B1: SEQ ID NO: 1768 (peptide)
peptide: Ac-IWIAQALR[R8]IG[αMeD]AFN[S5]YYA-NH2
modifications: staple 9-16
SMILES: CC[C@H](C)[C@H](NC(C)=O)C(=O)N[C@@H](Cc1c[nH]c2ccccc12)C(=O)N[C@H](C(=O)N[C@@H](C)C(=O)N[C@@H](CCC(N)=O)C(=O)N[C@@H](C)C(=O)N[C@@H](CC(C)C)C(=O)N[C@@H](CCCNC(=N)N)C(=O)N[C@]1(C)CCCCCCC=CCCC[C@@](C)(C(=O)N[C@@H](Cc2ccc(O)cc2)C(=O)N[C@@H](Cc2ccc(O)cc2)C(=O)N[C@@H](C)C(N)=O)NC(=O)[C@H](CC(N)=O)NC(=O)[C@H](Cc2ccccc2)NC(=O)[C@H](C)NC(=O)[C@](C)(CC(=O)O)NC(=O)CNC(=O)[C@H]([C@@H](C)CC)NC1=O)[C@@H](C)CC
Take B1: the affinity with BCL-XL [1] corresponds to a Ki of 206 nM.

B2: SEQ ID NO: 1723 (peptide)
peptide: Ac-[Aib]WIAAALR[R8]IGDAFN[S5]YYA-NH2
modifications: staple 9-16
SMILES: CC[C@H](C)[C@H](NC(=O)[C@H](Cc1c[nH]c2ccccc12)NC(=O)C(C)(C)NC(C)=O)C(=O)N[C@@H](C)C(=O)N[C@@H](C)C(=O)N[C@@H](C)C(=O)N[C@@H](CC(C)C)C(=O)N[C@@H](CCCNC(=N)N)C(=O)N[C@]1(C)CCCCCCC=CCCC[C@@](C)(C(=O)N[C@@H](Cc2ccc(O)cc2)C(=O)N[C@@H](Cc2ccc(O)cc2)C(=O)N[C@@H](C)C(N)=O)NC(=O)[C@H](CC(N)=O)NC(=O)[C@H](Cc2ccccc2)NC(=O)[C@H](C)NC(=O)[C@H](CC(=O)O)NC(=O)CNC(=O)[C@H]([C@@H](C)CC)NC1=O
notes: also called Ac-AibWIAAALR$r8IGDAFN$YYA-NH2
With B2, the Ki in the assay with BCL-XL [2] amounted to 20.3 nM; with BCL-2, 56 nM; with MCL-1 [3], 4 nM.

B3: SEQ ID NO: 1655 (peptide)
peptide: IWIAQALXAIGDAFNAYYA
modifications: Ac- at N-terminus; -NH2 at C-terminus; $r8 at 9 and $ at 16 joined by all-carbon crosslinker; Cit (citrulline) at 8
Take B3: the Ki in the assay with BCL-XL [2] is 109 nM; with BCL-2 it was 212 nM; in the assay with MCL-1 [3] it was 7.5 nM.

B4: SEQ ID NO: 1767 (peptide)
peptide: Ac-IWIAQA[αMeL]R[R8]IGDAFN[S5]YYA-NH2
modifications: staple 9-16
SMILES: CC[C@H](C)[C@H](NC(C)=O)C(=O)N[C@@H](Cc1c[nH]c2ccccc12)C(=O)N[C@H](C(=O)N[C@@H](C)C(=O)N[C@@H](CCC(N)=O)C(=O)N[C@@H](C)C(=O)N[C@@](C)(CC(C)C)C(=O)N[C@@H](CCCNC(=N)N)C(=O)N[C@]1(C)CCCCCCC=CCCC[C@@](C)(C(=O)N[C@@H](Cc2ccc(O)cc2)C(=O)N[C@@H](Cc2ccc(O)cc2)C(=O)N[C@@H](C)C(N)=O)NC(=O)[C@H](CC(N)=O)NC(=O)[C@H](Cc2ccccc2)NC(=O)[C@H](C)NC(=O)[C@H](CC(=O)O)NC(=O)CNC(=O)[C@H]([C@@H](C)CC)NC1=O)[C@@H](C)CC
notes: Row prints Ac-IWIAQAAmLR$r8IGDAFN$YYA-NH2
B4 gave a Ki in the assay with MCL-1 [4] of 86.6 nM.

B5: SEQ ID NO: 1771 (peptide)
peptide: Ac-IWIAQAA[Cit][R8]IGDAFN[S5]YYA-NH2
modifications: staple 9-16
SMILES: CC[C@H](C)[C@H](NC(C)=O)C(=O)N[C@@H](Cc1c[nH]c2ccccc12)C(=O)N[C@H](C(=O)N[C@@H](C)C(=O)N[C@@H](CCC(N)=O)C(=O)N[C@@H](C)C(=O)N[C@@H](C)C(=O)N[C@@H](CCCNC(N)=O)C(=O)N[C@]1(C)CCCCCCC=CCCC[C@@](C)(C(=O)N[C@@H](Cc2ccc(O)cc2)C(=O)N[C@@H](Cc2ccc(O)cc2)C(=O)N[C@@H](C)C(N)=O)NC(=O)[C@H](CC(N)=O)NC(=O)[C@H](Cc2ccccc2)NC(=O)[C@H](C)NC(=O)[C@H](CC(=O)O)NC(=O)CNC(=O)[C@H]([C@@H](C)CC)NC1=O)[C@@H](C)CC
B5 returned a Ki in the assay with BCL-XL [1] of 85 nM.

B6: SEQ ID NO: 1774 (peptide)
peptide: Ac-IWIAQAL[Cit][R8]IGDAVN[S5]YYA-NH2
modifications: staple 9-16
SMILES: CC[C@H](C)[C@H](NC(C)=O)C(=O)N[C@@H](Cc1c[nH]c2ccccc12)C(=O)N[C@H](C(=O)N[C@@H](C)C(=O)N[C@@H](CCC(N)=O)C(=O)N[C@@H](C)C(=O)N[C@@H](CC(C)C)C(=O)N[C@@H](CCCNC(N)=O)C(=O)N[C@]1(C)CCCCCCC=CCCC[C@@](C)(C(=O)N[C@@H](Cc2ccc(O)cc2)C(=O)N[C@@H](Cc2ccc(O)cc2)C(=O)N[C@@H](C)C(N)=O)NC(=O)[C@H](CC(N)=O)NC(=O)[C@H](C(C)C)NC(=O)[C@H](C)NC(=O)[C@H](CC(=O)O)NC(=O)CNC(=O)[C@H]([C@@H](C)CC)NC1=O)[C@@H](C)CC
For B6, the Ki in the assay with MCL-1 [4] amounted to 0.8 nM.

B7: SEQ ID NO: 1773 (peptide)
peptide: Ac-IWIAQAL[Cit][R8]IGDAAN[S5]YYA-NH2
modifications: staple 9-16
SMILES: CC[C@H](C)[C@H](NC(C)=O)C(=O)N[C@@H](Cc1c[nH]c2ccccc12)C(=O)N[C@H](C(=O)N[C@@H](C)C(=O)N[C@@H](CCC(N)=O)C(=O)N[C@@H](C)C(=O)N[C@@H](CC(C)C)C(=O)N[C@@H](CCCNC(N)=O)C(=O)N[C@]1(C)CCCCCCC=CCCC[C@@](C)(C(=O)N[C@@H](Cc2ccc(O)cc2)C(=O)N[C@@H](Cc2ccc(O)cc2)C(=O)N[C@@H](C)C(N)=O)NC(=O)[C@H](CC(N)=O)NC(=O)[C@H](C)NC(=O)[C@H](C)NC(=O)[C@H](CC(=O)O)NC(=O)CNC(=O)[C@H]([C@@H](C)CC)NC1=O)[C@@H](C)CC
Molecule B7 had a Ki in the assay with MCL-1 [4] of 39.5 nM.

B8: SEQ ID NO: 1779 (peptide)
peptide: Ac-AWIAAALR[R8][hLeu]GDAFN[S5]Y[Phe(4-F)]A-NH2
modifications: staple 9-16
SMILES: CC[C@H](C)[C@H](NC(=O)[C@H](Cc1c[nH]c2ccccc12)NC(=O)[C@H](C)NC(C)=O)C(=O)N[C@@H](C)C(=O)N[C@@H](C)C(=O)N[C@@H](C)C(=O)N[C@@H](CC(C)C)C(=O)N[C@@H](CCCNC(=N)N)C(=O)N[C@]1(C)CCCCCCC=CCCC[C@@](C)(C(=O)N[C@@H](Cc2ccc(O)cc2)C(=O)N[C@@H](Cc2ccc(F)cc2)C(=O)N[C@@H](C)C(N)=O)NC(=O)[C@H](CC(N)=O)NC(=O)[C@H](Cc2ccccc2)NC(=O)[C@H](C)NC(=O)[C@H](CC(=O)O)NC(=O)CNC(=O)[C@H](CCC(C)C)NC1=O
As to B8, the Ki amounted to 52 nM with MCL-1 [4] and 37 nM in the assay with BCL-XL [1].

B9: SEQ ID NO: 1715 (peptide)
peptide: Ac-IW[Ac5c]AQALR[R8]IGDAFN[S5]YYA-NH2
modifications: staple 9-16
SMILES: CC[C@H](C)[C@H](NC(C)=O)C(=O)N[C@@H](Cc1c[nH]c2ccccc12)C(=O)NC1(C(=O)N[C@@H](C)C(=O)N[C@@H](CCC(N)=O)C(=O)N[C@@H](C)C(=O)N[C@@H](CC(C)C)C(=O)N[C@@H](CCCNC(=N)N)C(=O)N[C@]2(C)CCCCCCC=CCCC[C@@](C)(C(=O)N[C@@H](Cc3ccc(O)cc3)C(=O)N[C@@H](Cc3ccc(O)cc3)C(=O)N[C@@H](C)C(N)=O)NC(=O)[C@H](CC(N)=O)NC(=O)[C@H](Cc3ccccc3)NC(=O)[C@H](C)NC(=O)[C@H](CC(=O)O)NC(=O)CNC(=O)[C@H]([C@@H](C)CC)NC2=O)CCCC1
notes: also called Ac-IWAc5cAQALR$r8IGDAFN$YYA-NH2
Regarding B9, the Ki was found to be 8.4 nM with BCL-XL [2], 68.2 nM with BCL-2 and 8.9 nM in the assay with MCL-1 [3].

B10: SEQ ID NO: 1776 (peptide)
peptide: Ac-IWIAQALR[R8][hLeu]GDAFN[S5][Phe(4-F)]YA-NH2
modifications: staple 9-16
SMILES: CC[C@H](C)[C@H](NC(C)=O)C(=O)N[C@@H](Cc1c[nH]c2ccccc12)C(=O)N[C@H](C(=O)N[C@@H](C)C(=O)N[C@@H](CCC(N)=O)C(=O)N[C@@H](C)C(=O)N[C@@H](CC(C)C)C(=O)N[C@@H](CCCNC(=N)N)C(=O)N[C@]1(C)CCCCCCC=CCCC[C@@](C)(C(=O)N[C@@H](Cc2ccc(F)cc2)C(=O)N[C@@H](Cc2ccc(O)cc2)C(=O)N[C@@H](C)C(N)=O)NC(=O)[C@H](CC(N)=O)NC(=O)[C@H](Cc2ccccc2)NC(=O)[C@H](C)NC(=O)[C@H](CC(=O)O)NC(=O)CNC(=O)[C@H](CCC(C)C)NC1=O)[C@@H](C)CC
Turning to B10, the values for the Ki in the assay with MCL-1 [4] and with BCL-XL [1] were 58 nM and 43 nM, respectively.

B11: SEQ ID NO: 1778 (peptide)
peptide: Ac-IWIAQALR[R8][hLeu]GDAFN[S5][Phe(4-F)][Phe(4-F)]A-NH2
modifications: staple 9-16
SMILES: CC[C@H](C)[C@H](NC(C)=O)C(=O)N[C@@H](Cc1c[nH]c2ccccc12)C(=O)N[C@H](C(=O)N[C@@H](C)C(=O)N[C@@H](CCC(N)=O)C(=O)N[C@@H](C)C(=O)N[C@@H](CC(C)C)C(=O)N[C@@H](CCCNC(=N)N)C(=O)N[C@]1(C)CCCCCCC=CCCC[C@@](C)(C(=O)N[C@@H](Cc2ccc(F)cc2)C(=O)N[C@@H](Cc2ccc(F)cc2)C(=O)N[C@@H](C)C(N)=O)NC(=O)[C@H](CC(N)=O)NC(=O)[C@H](Cc2ccccc2)NC(=O)[C@H](C)NC(=O)[C@H](CC(=O)O)NC(=O)CNC(=O)[C@H](CCC(C)C)NC1=O)[C@@H](C)CC
Consider B11, for which the values for the Ki in the assay with MCL-1 [4] and in the assay with BCL-XL [1] were 127 nM and 121 nM, respectively.

B12: SEQ ID NO: 1777 (peptide)
peptide: Ac-IWIAQALR[R8][hLeu]GDAFN[S5]Y[Phe(4-F)]A-NH2
modifications: staple 9-16
SMILES: CC[C@H](C)[C@H](NC(C)=O)C(=O)N[C@@H](Cc1c[nH]c2ccccc12)C(=O)N[C@H](C(=O)N[C@@H](C)C(=O)N[C@@H](CCC(N)=O)C(=O)N[C@@H](C)C(=O)N[C@@H](CC(C)C)C(=O)N[C@@H](CCCNC(=N)N)C(=O)N[C@]1(C)CCCCCCC=CCCC[C@@](C)(C(=O)N[C@@H](Cc2ccc(O)cc2)C(=O)N[C@@H](Cc2ccc(F)cc2)C(=O)N[C@@H](C)C(N)=O)NC(=O)[C@H](CC(N)=O)NC(=O)[C@H](Cc2ccccc2)NC(=O)[C@H](C)NC(=O)[C@H](CC(=O)O)NC(=O)CNC(=O)[C@H](CCC(C)C)NC1=O)[C@@H](C)CC
For the molecule B12, the Ki came to 27 nM with MCL-1 [4] and 13 nM in the assay with BCL-XL [1].

The term Ki denotes a dissociation constant, usually derived from enzyme kinetics or from competition with a known ligand.

The values above are taken from US20180273587A1 (AILERON THERAPEUTICS, published 2018).
